This experiment deals with Glypican-3 (GPC3), surface antigen of HepG2 cells (Homo sapiens (endogenous, HepG2), UniProt P51654). Briefly: co-IP.
Chain of Glypican-3 (GPC3), surface antigen of HepG2 cells (P51654 25-580): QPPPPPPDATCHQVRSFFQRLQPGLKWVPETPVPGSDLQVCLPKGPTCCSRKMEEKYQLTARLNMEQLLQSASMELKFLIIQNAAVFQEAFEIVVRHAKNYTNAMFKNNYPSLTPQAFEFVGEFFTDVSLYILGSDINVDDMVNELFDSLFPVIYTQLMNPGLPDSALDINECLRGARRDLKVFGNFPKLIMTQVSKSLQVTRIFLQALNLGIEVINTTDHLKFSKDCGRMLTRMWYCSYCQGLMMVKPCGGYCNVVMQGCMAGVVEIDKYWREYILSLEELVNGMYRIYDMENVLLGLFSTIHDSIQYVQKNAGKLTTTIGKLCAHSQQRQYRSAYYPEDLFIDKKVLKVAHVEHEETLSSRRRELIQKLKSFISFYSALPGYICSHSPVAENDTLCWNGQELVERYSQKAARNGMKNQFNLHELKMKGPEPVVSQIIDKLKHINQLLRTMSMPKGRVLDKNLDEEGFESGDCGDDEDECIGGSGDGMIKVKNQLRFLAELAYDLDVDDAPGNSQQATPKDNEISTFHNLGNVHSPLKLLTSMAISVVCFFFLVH

B1: Hbp-hGC33-scFv/Myc fusion protein displayed on the membrane surface of E. coli outer membrane vesicles (hGC33-OMVs) (scFv, V domains shown)
VH: QVQLVQSGAEVKKPGASVKVSCKASGYTFTDYEMHWVRQAPGQGLEWMGALDPKTGDTAYSQKFKGRVTLTADKSTSTAYMELSSLTSEDTAVYYCTRFYSYTYWGQGTLVTVSS
VL: DVVMTQSPLSLPVTPGEPASISCRSSQSLVHSNGNTYLHWYLQKPGQSPQLLIYKVSNRFSGVPDRFSGSGSGTDFTLKISRVEAEDVGVYYCSQNTHVPPTFGQGTKLEIK
B1: the binding result is given as “binds”.

(Values after article PMC12106912 (International Journal of Nanomedicine, 2025).)
